Laboratory results published in paper PMC10894483, “In silico design of multipoint mutants for enhanced performance of Thermomyces lanuginosus lipase for efficient biodiesel production” (Biotechnology for Biofuels and Bioproducts, 2024).

Substrate: CCCCCCCCCCCCCCCC(=O)Oc1ccc([N+](=O)[O-])cc1
Test: colorimetric p-nitrophenol release, Michaelis-Menten fit
Type: biochemical, Thermomyces lanuginosus
Details: 45 °C, Tris-HCl pH 8.5, 10-100 mM pNPP, fermentation supernatant

B1: Thermomyces lanuginosus lipase (TLL; wt–TLL) (Thermomyces lanuginosus) (protein)
chain: EVSQDLFNQFNLFAQYSAAAYCGKNNDAPAGTNITCTGNACPEVEKADATFLYSFEDSGVGDVTGFLALDNTNKLIVLSFRGSRSIENWIGNLNFDLKEINDICSGCRGHDGFTSSWRSVADTLRQKVEDAVREHPDYRVVFTGHSLGGALATVAGADLRGNGYDIDVFSYGAPRVGNRAFAEFLTVQTGGTLYRITHTNDIVPRLPPREFGYSHSSPEYWIKSGTLVPVTRNDIVKIEGIDATGGNNQPNIPDIPAHLWYFGLIGTCL
notes: N-terminal 6xHis-tag, yeast secretion signal, secreted from Pichia pastoris GS115; fermentation supernatant used without purification (single band); 35 kDa
  Km: 3.61 ± 0.10 mM
